Source: US20090022739A1, “MODULATING THE KV1.1 VOLTAGE-GATED POTASSIUM CHANNEL IN T-CELLS FOR REGULATING THE […] AND SECRETION OF TUMOR NECROSIS FACTOR ALPHA (tnf-ALPHA) AND TREATING HUMAN DISEASE OR INJURIES MEDIATED BY […] HIGH OR LOW LEVELS OF TNF-ALPHA” (priority 2005, published 2009)

What was measured:
Kv1.1 [1] = biological target: T1, Kv1.1 (Homo sapiens, UniProt Q09470); settings: Gutman et al, 2003; cited from earlier work
Kv1.1 [2] = biological target: T1, Kv1.1; settings: cited from earlier work
NF-κB p50 = assay: Immunofluorescent histochemistry for NF-κB p50 nuclear translocation; format: cell-based, human; settings: 100 nM DTX-K; 7 minutes; FIG. 3C
Method: Immunofluorescent Histochemistry for NF-κB: Freshly-isolated normal human T-cells that were pretreated or not with DTX-K (100 nM for 7, 15, 30 and 60 minutes), were pelleted (1200 g, 10 minutes, […]), suspended in PBS at 1×10^6 cells/ml, centrifuged (1200 g, 10 minutes), fixed on glass slide by cytospin (250 μl/slide, 1500 rpm, 5 minutes; Shandon Elliot, London, UK), permeablized (200 μl/slide of a solution containing 100 ml 95% methanol and 3 ml acetic acid glacial), and incubated in a blocking medium (200 μl/slide) containing 10% normal goat serum, 2% BSA, 1% glycine and 0.5% triton X-100. The cells were then stained with a rabbit anti-human NF-κB p50 polyclonal Ab (80 μl of 1:50 dilution for 30 minutes at room temperature; Santa Cruz Biotechnology, Santa Cruz, Calif.). […]
In case of the TNF-α gene, the observed importance of NF-κB for the expression of the TNFα gene may depend on the cell type and the segment of the enhancer/promoter analyzed (Siebenlist et al, 1990). […]
In the experiment the results of which are shown in FIG. 3C, normal human T-cells were either left untreated or treated with 100 nM DTX-K for 7, 15, 30 and 60 minutes (see DTX-K treatment time above each respective column). […] Representative photographs at ×100 magnification are shown for NF-κB p50 green fluorescence (upper panel), nuclei blue fluorescence (middle panel), and overlay of both (lower panel). […]

human T-cells = settings: data not shown
NF-κB = assay: EMSA for nuclear NF-κB in normal human T-cells; format: cell-based; settings: 100 nM DTX-K
Method: EMSA for Nuclear NF-κB: Nuclear fractions from freshly-isolated normal human T-cells were collected using Nuclear Extract Kit (Active Motif, Carlsbad, Calif.), according to the manufacturer's instructions. NF-κB levels in nuclear fractions were measured using TransAM NF-κB Family Kit (Active Motif), according to the manufacturer's instructions.
In case of the TNF-α gene, the observed importance of NF-κB for the expression of the TNFα gene may depend on the cell type and the segment of the enhancer/promoter analyzed (Siebenlist et al, 1990). On these grounds, we investigated whether block of Kv1.1 channels in normal human T-cells (once again, in the complete absence of any other stimuli) can affect NF-κB. […]
Nuclear extracts were […] for several time periods, of which only 7 min is shown. The results, expressed as OD±SD, reflect the amount of NF-κB bound to nuclear NF-κB-binding sequences, as determined by commercially available EMSA. […]

T1 sequence (Q09470 whole entry): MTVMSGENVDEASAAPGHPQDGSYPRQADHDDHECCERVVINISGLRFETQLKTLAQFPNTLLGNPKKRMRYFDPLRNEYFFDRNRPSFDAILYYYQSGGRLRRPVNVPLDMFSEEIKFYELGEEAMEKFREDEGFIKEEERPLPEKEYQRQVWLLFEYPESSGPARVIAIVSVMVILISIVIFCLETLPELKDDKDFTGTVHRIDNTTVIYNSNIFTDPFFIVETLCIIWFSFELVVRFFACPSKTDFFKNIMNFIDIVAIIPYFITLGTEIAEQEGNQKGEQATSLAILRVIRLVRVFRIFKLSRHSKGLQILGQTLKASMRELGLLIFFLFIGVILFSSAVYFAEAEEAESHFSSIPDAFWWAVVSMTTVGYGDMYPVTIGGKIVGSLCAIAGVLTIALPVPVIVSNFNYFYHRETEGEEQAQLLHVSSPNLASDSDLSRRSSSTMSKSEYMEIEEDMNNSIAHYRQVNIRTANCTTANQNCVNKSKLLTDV

Dendrotoxin-K (AAKYCKLPLRIGPCKRKIPSFYYKWKAKQCLPFDYSGCGGNANRFKTIEECRRTCVG) [DTX-K]
Ki (Kv1.1 [1]): 0.016 nM
active concentration, Kv1.1 channel block (Kv1.1 [2]): picomolar concentrations
NF-κB p50 staining of the cell nucleus (NF-κB p50): clearly positive for NF-κB p50
effect on cell survival or proliferation (human T-cells): no significant effect
level of NF-κB present in the nuclear extracts (NF-κB; 7 minutes, FIG. 3B): significantly augmented
elevation of nuclear NF-κB at later time points (NF-κB; several later time points, data not shown): no longer detected
